Laboratory results as given in US20150094211, “POLYMERASE COMPOSITIONS, METHODS OF MAKING AND USING SAME” (LIFE TECHNOLOGIES CORPORATION, published 2015).
Changes are numbered by the printed parent chain.

How the values were obtained:
Conditions in all cases: label: fluorescein-dT at N (position 34); hairpin with 5' overhang
[1] = biological target: T1, Bst DNA polymerase F448K (labelled 488K in the text for FIG. 2) (F448K); assay: dissociation time constant at varying salt; values only in figure; mutation printed as 488K and F448K
T1 chain: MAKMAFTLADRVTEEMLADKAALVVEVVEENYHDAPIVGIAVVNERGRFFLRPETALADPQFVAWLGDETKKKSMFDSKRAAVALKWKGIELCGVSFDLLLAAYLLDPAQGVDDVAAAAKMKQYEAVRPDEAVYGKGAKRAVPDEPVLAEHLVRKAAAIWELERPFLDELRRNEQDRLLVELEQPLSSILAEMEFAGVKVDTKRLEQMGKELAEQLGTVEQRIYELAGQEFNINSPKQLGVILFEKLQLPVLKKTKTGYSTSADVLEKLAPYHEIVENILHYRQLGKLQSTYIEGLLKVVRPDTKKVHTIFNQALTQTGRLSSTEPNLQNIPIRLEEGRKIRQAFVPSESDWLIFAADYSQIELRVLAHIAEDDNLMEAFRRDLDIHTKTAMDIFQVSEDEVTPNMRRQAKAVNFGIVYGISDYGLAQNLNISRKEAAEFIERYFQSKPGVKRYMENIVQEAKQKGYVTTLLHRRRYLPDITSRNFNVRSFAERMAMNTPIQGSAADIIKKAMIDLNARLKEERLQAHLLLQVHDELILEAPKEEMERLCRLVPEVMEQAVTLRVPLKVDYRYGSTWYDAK
Method: (§1) Dissociation is measured by the decrease in fluorescence that occurs when the Bst polymerase dissociates from the template. Dissociation is initiated by adding a vast excess of unlabeled, competitor DNA (hairpin oligo 173) having the following nucleotide sequence:
(§2) To perform the assay, reactions (75 μl) containing 30 mM Tris (pH 7.5), 20 mM NaCl, 50 nM oligo 221, and ˜10-200 nM partially polymerase samples (prepared according to Example 1) were assembled in 96-well plates. Baseline readings were then taken on the spectrophotometer using 490 nm excitation and 525 nm emission wavelengths. The 173 competitor oligo (2 μM final concentration) was then rapidly added to each well and plates were rapidly returned to the spectrophotometer for readings every 30 seconds for 5 minutes. The dissociation rate was calculated by fitting the data to a one-phase exponential decay equation using PrismGraph® according to the following formula: […]

Taq DNA polymerase E745Q = Taq DNA polymerase E745Q (UniProt P19821 SEQ:1-832, E745Q); assay: fluorescence dissociation with excess hairpin oligo 173 competitor (SEQ 22); mutant dissociates slower
Chain of Taq DNA polymerase E745Q (P19821 whole entry E745Q): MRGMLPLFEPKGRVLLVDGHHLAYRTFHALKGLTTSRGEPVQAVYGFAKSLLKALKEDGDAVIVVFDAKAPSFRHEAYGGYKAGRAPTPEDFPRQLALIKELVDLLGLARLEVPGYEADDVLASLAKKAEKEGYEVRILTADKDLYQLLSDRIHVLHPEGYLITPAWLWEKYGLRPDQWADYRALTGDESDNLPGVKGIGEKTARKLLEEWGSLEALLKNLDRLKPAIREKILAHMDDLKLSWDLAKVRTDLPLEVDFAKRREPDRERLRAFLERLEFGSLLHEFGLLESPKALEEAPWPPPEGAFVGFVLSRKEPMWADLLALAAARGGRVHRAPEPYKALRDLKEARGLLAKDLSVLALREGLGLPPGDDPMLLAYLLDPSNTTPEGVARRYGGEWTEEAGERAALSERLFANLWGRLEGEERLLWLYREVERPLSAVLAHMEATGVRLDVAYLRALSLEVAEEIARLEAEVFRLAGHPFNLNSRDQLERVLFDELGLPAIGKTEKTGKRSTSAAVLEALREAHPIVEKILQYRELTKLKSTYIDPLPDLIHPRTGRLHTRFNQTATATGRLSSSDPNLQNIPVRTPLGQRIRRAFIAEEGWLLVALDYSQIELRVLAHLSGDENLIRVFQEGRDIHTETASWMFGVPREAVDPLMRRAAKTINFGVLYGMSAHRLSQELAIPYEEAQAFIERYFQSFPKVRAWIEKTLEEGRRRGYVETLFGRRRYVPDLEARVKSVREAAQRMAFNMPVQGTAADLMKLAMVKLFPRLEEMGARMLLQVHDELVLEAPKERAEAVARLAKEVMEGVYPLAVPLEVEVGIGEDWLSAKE
Method: as §2
(§3) Various exemplary mutations were introduced via site-directed mutagenesis into an exemplary reference polymerase (wild-type Taq DNA polymerase SEQ ID NO: 15) to generate a series of modified Taq DNA polymerases. In this example, reference polymerase, SEQ ID NO: 15 was modified to contain a single amino acid mutation selected from D732R, E745Q or E471K. Each modified polymerase was sequence verified, and expressed essentially according to Example 1. The modified polymerases were then assayed to measure dissociation rate constant essentially according to Example 2.

Taq DNA polymerase E471K = Taq DNA polymerase E471K (UniProt P19821 SEQ:1-832, E471K); assay: as above
Chain of Taq DNA polymerase E471K (P19821 whole entry E471K): as the sequence (P19821 whole entry E745Q) above, with E471K, Q745E counted along it
Method: as §2, §3

Bst DNA polymerase D144K = biological target: T2, Bst DNA polymerase D144K (D144K); assay: dissociation time constant at varying salt; values only in figure
T2 chain: T1 chain with D144K, K448F
Method: as §1, §2

Bst DNA polymerase G425R = biological target: T3, Bst DNA polymerase G425R (G425R); assay: as above
T3 chain: T1 chain with G425R, K448F
Method: as §1, §2

[2] = biological target: T4, Bst DNA polymerase large fragment (Bst 1.0, reference); assay: reference; dissociates 4.7-fold faster than D480R; rate constant only in figure
T4 chain: T1 chain with K448F

[3] = biological target: Klenow fragment (wild type) (UniProt P00582 SEQ:2-606); assay: reference; dissociates 13-fold faster than D505R; rate constant only in figure
[4] = biological target: Taq DNA polymerase D732R (LR1 Taq) (UniProt P19821 SEQ:1-832, D732R); assay: fluorescence dissociation with excess hairpin oligo 173 competitor (SEQ 22); 30 mM Tris pH 7.5, 20 mM NaCl; mutant dissociates slower
Chain of Taq DNA polymerase D732R (LR1 Taq) (P19821 whole entry D732R): as the sequence (P19821 whole entry E745Q) above, with D732R, Q745E counted along it
Method: as §2, §3

[5] = biological target: T5, Bst DNA polymerase D480R (LR1; D775R in full-length numbering) (D480R); assay: as above
T5 chain: T1 chain with K448F, D480R
Method: as §2
(§4) Various exemplary mutations were introduced via site-directed mutagenesis into exemplary reference polymerases to generate modified polymerases. In this example, reference polymerase SEQ ID NO: 2 was modified to contain a further amino acid mutation (D480R). Reference polymerase SEQ ID NO: 15 was also modified to contain a further amino acid mutation (D732R). Additionally, reference polymerase SEQ ID NO: 18 was modified to contain amino acid mutation (D505R). The modified polymerases were sequence verified, and expressed essentially according to the procedure of Example 1. The modified polymerases were then assayed to measure dissociation rate constant essentially according to the procedure of Example 2.

[6] = biological target: Klenow fragment D505R (LR1) (UniProt P00582 SEQ:2-606, D505R); assay: as above
Method: as §2, §4

## TTTTTTTGCAGGTGACAGGTTTTTCCTGTCACCTGC (structured_DNA, [fluorescein-dT at 34]) [oligo 221]
[1]
  binding result: binds
Taq DNA polymerase E745Q
  binding signal: 4.7 fold (koff wt/koff mutant)
Taq DNA polymerase E471K
  binding signal: 5 fold (koff wt/koff mutant)
Bst DNA polymerase D144K
  binding result: binds
Bst DNA polymerase G425R
  binding result: binds
[2]
  binding result: binds
[3]
  binding result: binds
[4]
  binding signal: 14.1 fold (koff wt/koff mutant)
[5]
  binding signal: 4.7 fold (koff reference/koff mutant)
[6]
  binding signal: 13 fold (koff wt/koff mutant)
